In US9580716B2, “Site-specific incorporation of phosphoserine into proteins in Escherichia coli” (Yale University, priority 2010, dated 2017):

Legend:
[^14C]Sep-tRNA^Cys = EF-Tu hydrolysis protection assay with Sep-tRNA^Cys; assay type: binding, Methanocaldococcus jannaschii; details: pH 8.2; 40 μM factor, 2 μM [^14C]Sep-tRNA^Cys, 25° C.; FIG. 3 and FIG. 5B
Method: Protection of Sep-tRNA^Cys by EF-Tu was assayed as described earlier with slight modifications (Ling J, et al. RNA. 2007 November; 13(11):1881-6.). Briefly, EF-Tu or EF-Sep (both purified as maltose binding protein fusion proteins) were activated for 20 min. at 37° C. in buffer containing 100 mM Tris-HCl (pH 8.2), 120 mM NH4Cl, 7 mM MgCl2, 5 mM DTT, 5 mM phosphoenolpyruvate, 1.5 mM GTP, and 0.12 μg/μl pyruvate kinase. Hydrolysis of 2 μM [^14C]Sep-tRNA^Cys was then monitored at 25° C. in the presence of 40 μM EF-Tu (wt), EF-Sep, or BSA, respectively. Aliquots were taken from the reaction mix at indicated time points and spotted on 3MM filter discs presoaked with 10% trichloroacetic acid. Filters were washed with 5% trichloroacetic acid, dried, and radioactivity was measured by liquid scintillation counting.
(§1) To assay hydrolysis protection of acylated tRNA^Cys by EF-Tu, […] tRNA^Cys in vitro transcripts acylated with [^14C]Sep or [^35S]Cys, respectively, were phenol/chlorophorm extracted, and the aqueous phase was passed over Sephadex® G25 Microspin columns (GE Healthcare) equilibrated with water. […] Hydrolysis of 2 μM [^14C]Sep-tRNA^Cys was then monitored at 25° C. in the presence of 40 μM EF-Tu (wt), EF-Sep, or BSA, respectively. […] Filters were washed with 5% trichloroacetic acid, dried, and radioactivity was measured by liquid scintillation counting.

[^35S]Cys-tRNA^Cys = EF-Tu hydrolysis protection assay with Cys-tRNA^Cys; assay type: binding, Methanocaldococcus jannaschii; details: pH 8.2; FIG. 5A
Method: FIGS. 5A and 5B are graphs showing EF-Tu protects Cys-tRNA^Cys(FIG. 5A) but not Sep-tRNA^Cys (FIG. 5B) from deacylation. Hydrolysis of M. jannaschii [^35S]Cys-tRNA^Cys or [^14C]Sep-tRNA^Cys was determined at pH 8.2 and room temperature in the presence or absence of EF-Tu.
Given that EF-Tu is a component of quality control in protein synthesis (LaRiviere, FJ., et al. Science 294, 165 (2001)), it is highly plausible that Sep-tRNA^Sep may be rejected by EF-Tu in order not to interfere with the complicated cellular mechanism of phosphoprotein production. […] This assumption was tested in EF-Tu mediated Sep-tRNA hydrolysis protection experiments (J. Ling et al., Proc Natl Acad Sci USA 104, 15299 (2007)), and incubated recombinant E. coli EF-Tu with the Mj tRNA^Cys in vitro transcript either acylated with [^35S]Cys or [^14C]Sep at pH 8.2. […]
as §1

E. coli Top10ΔserB = assay: CAT (UAG at position 112) suppression assay, chloramphenicol resistance; assay type: cell-based, Escherichia coli
Method: The suppressor tRNA^Sep was coexpressed with the indicated enzymes in E. coli Top10ΔserB. Selection was carried out on LB agar plates containing 2 mM Sep and various concentrations of chloramphenicol.
pCAT112TAG-SepT was created from pACYC 184. The gene encoding chloramphenicol acetyltransferae (CAT) was modified by quickchange mutagenesis to introduce an amber stop codon at position Asp112 (Wang L, et al. Science 292:498 (2001)). The resulting plasmid was PCR amplified using primers PBLAF (5′-TGCGCAATGCGGCCGCCCGTAGCGCCGATGGTAGTGT-3′, SEQ ID NO:9) and PBLAR (5′-ACACGGAGATCTCTAAAGTATATATGAGTAAAC-3′, SEQ ID NO: 10) and ligated with a PCR product containing a tRNA^Sep expression cassette from pSepT, created with primers TSEPF (5′-GCATGCGCCGCCAGCTGTTGCCCGTCTCGC-3′, SEQ ID NO:17) and TSEPR (5′-GCATAGATCTTCAGCTGGCGAAAGGGGGATG-3′, SEQ ID NO:18).
Efficient and selective addition of Sep to the E. coli genetic repertoire requires exclusive interaction of SepRS with tRNA^Sep for Sep-tRNA^Sep formation without interfering in the host translation system as well as a sufficient intracellular concentration of Sep. As E. coli has a Sep-compatible transporter (Wanner, B L. FEMS Microbiol Lett 79, 133 (1992)), Sep (2 mM) was added to the growth medium, and the endogenous serB gene encoding phosphoserine phosphatase was deleted in the E. coli test strain. To assess whether the Mj tRNA^Sep/Mmp SepRS pair is functional and orthogonal in E. coli, a suppression assay was performed that employed a chloramphenicol acetyltransferase (CAT) gene with a UAG stop codon at the permissive position 112 (wild-type amino acid: Asp) to produce chloramphenicol (Cm) acetyltransferase; then cell survival was measured in the presence of Sep and varying amounts of Cm. The different IC50 values (FIG. 2) relate to suppression efficiency (i.e., amount of CAT made dependent on the various transformed genes). When only tRNA^Sep is expressed (FIG. 2, second bar) Cm resistance increases about 3.3-fold over background (FIG. 2, first bar). Thus, tRNA^Sep can be aminoacylated to a certain degree by an unknown E. coli aminoacyl-tRNA synthetase (Gln is being incorporated at the amber stop codon). […] This may indicate that SepRS can out-compete any endogenous aminoacyl-tRNA synthetase and form Sep-tRNAS^Sep; however, this aminoacyl-tRNA is not delivered to the ribosome or not accommodated on the ribosome. […] Co-expression of tRNA^Sep, SepRS and SepCysS should result in formation of Sep-tRNA^Sep and subsequent SepCysS-mediated conversion to Cys-tRNA^Sep (A. Sauerwald et al., Science 307, 1969 (2005)). Indeed, a 2.3-fold increase in Cm resistance is observed (FIG. 2, sixth bar). This further supports the notion that while Sep-tRNA^Sep is synthesized, it cannot be used properly by the E. coli protein biosynthesis machinery.
Resulting pKD-SepRS-EFTu plasmids were transformed into E. coli Top10ΔserB containing pCAT112-SepT for a third round of selection which was carried out under the same conditions as the first. This time, individual colonies were isolated from agar plates and clones were tested for their ability to grow on Cm over a concentration range from […]. Total plasmid was purified from isolates showing strong Cm resistance, and pKD-SepRS-EFTu plasmids were subjected to sequencing. […]

Mmp SepRS = assay: In vitro aminoacylation of tRNA with Sep by Mmp SepRS; assay type: biochemical, Methanococcus maripaludis
Method: In vitro transcript of Methanocaldococcus jannaschii tRNA^Cys was prepared and acylated with [^14C]Sep (55 mCi/mmol) using recombinant Methanococcus maripaludis SepRS as described previously by Hohn M J, et al. Proc Natl Acad Sci USA. 2006 Nov. 28; 103(48):18095-100. Sep-tRNA^Cys was phenol/chlorophorm extracted, and the aqueous phase was passed over Sephadex G25 Microspin columns (GE Healthcare) equilibrated with water.
Total tRNA from E. coli Top10 or from E. coli Top10 complemented with pCysT or pSepT, respectively, was purified by standard procedures and acylated with [^14C]Sep by M. maripaludis SepRS as described previously. […] M. jannaschii tRNA^Cys contains m^1G37 when isolated from M. jannaschii. Since the E. coli methylase TrmD is known to methylate G37 of archaeal tRNA^Pro, it is believed that the in vivo expressed tRNA^Sep also carries the m^1G37 modification. In vitro transcript of M. jannaschii tRNA^Cys was prepared and acylated with [^14C]Sep or [^35S]Cys using recombinant M. maripaludis SepRS or CysRS. M. jannaschii tRNA^Cys transcript was chosen for these experiments because of the poor folding properties of in vitro transcribed M. maripaludis tRNA^Cys (Hohn, M. J. Proc Natl Acad Sci USA 103, 18095 (2006)).

Chain of Mmp SepRS (as listed by the source): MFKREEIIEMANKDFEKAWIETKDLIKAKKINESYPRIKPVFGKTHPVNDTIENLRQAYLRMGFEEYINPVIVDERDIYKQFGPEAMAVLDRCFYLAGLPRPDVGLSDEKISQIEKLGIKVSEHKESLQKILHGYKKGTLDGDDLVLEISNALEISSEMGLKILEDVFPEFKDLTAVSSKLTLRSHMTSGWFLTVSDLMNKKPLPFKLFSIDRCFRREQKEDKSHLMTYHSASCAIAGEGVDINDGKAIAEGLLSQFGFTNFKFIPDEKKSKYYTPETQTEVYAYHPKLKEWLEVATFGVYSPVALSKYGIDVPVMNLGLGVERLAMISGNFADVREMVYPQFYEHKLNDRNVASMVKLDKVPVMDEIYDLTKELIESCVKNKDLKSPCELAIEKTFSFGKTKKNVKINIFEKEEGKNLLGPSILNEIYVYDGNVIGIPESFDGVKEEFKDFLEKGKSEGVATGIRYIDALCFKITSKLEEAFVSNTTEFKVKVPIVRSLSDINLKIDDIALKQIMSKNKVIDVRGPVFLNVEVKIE

EF-Tu: wild type recombinant E. coli elongation factor Tu
protection of Sep-tRNA^Cys from deacylation ([^14C]Sep-tRNA^Cys): significantly deacylated irrespective of the presence of EF-Tu | protection of Cys-tRNA^Cys from deacylation ([^35S]Cys-tRNA^Cys): protected | Cm resistance (E. coli Top10ΔserB; tRNA^Sep and SepRS plus additional EF-Tu, FIG. 2 fifth bar): does not improve the result

B1: tRNA^Sep: amber suppressor tRNA derived from Mj tRNA^Cys with C20U change and two anticodon mutations; SEQ ID NO:41 (nucleic acid)
chain: GCCGGGGTAGTCTAGGGGTTAGGCAGCGGACTGCAGATCCGCCTTACGTGGGTTCAAATCCCACCCCCGGCT
modifications: expressed or natural sequence
activity of tRNA^Sep when compared to tRNA^Cys (Mmp SepRS; in vitro aminoacylation by Mmp SepRS, tRNA overexpressed in E. coli, effect of the anticodon change, FIG. 1C): about 40% | improvement of aminoacylation by SepRS through the C20U change (Mmp SepRS; tRNA^Sep derived from Mj tRNA^Cys, no effect on CysRS recognition): 2.5 fold | increase in Cm resistance (E. coli Top10ΔserB; co-expression of tRNA^Sep and Mmp CysRS, FIG. 2 eight bar): 12.3 fold | increase in Cm resistance (E. coli Top10ΔserB; co-expression of tRNA^Sep, SepRS and SepCysS, FIG. 2 sixth bar): 2.3 fold | increase in Cm resistance over background (E. coli Top10ΔserB; only tRNA^Sep expressed, 2 mM Sep, FIG. 2 second bar): about 3.3 fold | Cm resistance (E. coli Top10ΔserB; simultaneous expression of tRNA^Sep and SepRS, FIG. 2 third bar): does not provide Cm resistance
